{
  "source": "paper PMC6116751",
  "about": "“An enzymatic system for decolorization of wastewater dyes using immobilized CueO laccase‐like multicopper oxidase on poly‐3‐hydroxybutyrate” (Microbial Biotechnology, 2018)",
  "proteins": {"B1": {"name": "BioF–CueO (CueO laccase-like multicopper oxidase fused to BioF tag) (Escherichia coli K-12) (protein)", "chain": "AERPTLPIPDLLTTDARNRIQLTIGAGQSTFGGKTATTWGYNGNLLGPAVKLQRGKAVTVDIYNQLTEETTLHWHGLEVPGEVDGGPQGIIPPGGKRSVTLNVDQPAATCWFHPHQHGKTGRQVAMGLAGLVVIEDDEILKLMLPKQWGIDDVPVIVQDKKFSADGQIDYQLDVMTAAVGWFGDTLLTNGAIYPQHAAPRGWLRLRLLNGCNARSLNFATSDNRPLYVIASDGGLLPEPVKVSELPVLMGERFEVLVEVNDNKPFDLVTLPVSQMGMAIAPFDKPHPVMRIQPIAISASGALPDTLSSLPALPSLEGLTVRKLQLSMDPMLDMMGMQMLMEKYGDQAMAGMDHSQMMGHMGHGNMNHMNHGGKFDFHHANKINGQAFDMNKPMFAAAKGQYERWVISGVGDMMLHPFHIHGTQFRILSENGKPPAAHRAGWKDTVKVEGNVSEVLVKFNHDAPKEHAYMAHCHLLEHEDTGMMLGFTV", "notes": "signal peptide absent (the primer starts at mature Ala-Glu-Arg-Pro-Thr); cueO amplified from pCueO (pASK-IBA3 derivative); plasmid pDB2 (pET-21d); expressed in E. coli BL21(DE3), butyl sepharose; tag kept"}},
  "substrate": "COc1cccc(OC)c1O",
  "assay": "purified protein",
  "type": "biochemical, Escherichia coli",
  "conditions": "soluble enzyme, 20 mM Tris pH 6.5, 10 μM Cu2+, 30 °C",
  "data": [
    {"protein": "B1", "values": [
      {"measurement": "Km", "value": "400 ± 100", "unit": "µM"},
      {"measurement": "kcat", "value": "4.3 ± 0.1", "unit": "s⁻¹"},
      {"measurement": "kcat/Km", "value": 10700, "unit": "M⁻¹ s⁻¹"}
    ]}
  ]
}
